Measured values as given in patent publication US20020031818A1, “Modification of Mdm2 activity” (priority 2000, published 2002).

Tests used:
[1] = tested on: Mdm2 association with p53; experiment: p53 immunoprecipitation and immunoblot for bound Mdm2 form and p53 level in peptide-expressing cells; format: cell-based
Procedure: FIG. 11. Ubc9 binding affects the form of Mdm2 associated with p53. Mdm2/p53 double null cells were transfected with mu9sb or the wild type form mu9bs together with p53 and Mdm2. 36 h after transfection protein extracts were prepared and used for immunoprecipitation of p53 (using D01 antibodies). Immunoprecipitated material was analyzed via immunoblotting using antibodies to Mdm2, enabling to reveal the two major forms of Mdm2, indicated.
Therefore, we transfected human fibroblasts with mu9bs or mu9sb peptides. Immunoprecipitation of p53 was followed by Western blot analysis to determine the type and level of Mdm2 bound to p53 under each of these conditions.

[2] = molecular target: T1, Ubc9 (Mus musculus, UniProt P63280); experiment: Ubc9 capture by peptide immobilized on AminoLink column, Western blot; format: binding; settings: peptide-bound beads incubated with cell lysates from EJ mouse fibroblast cells; Western blot with Ubc9 antibodies
T1 construct: endogenous in cells; host or cells: NIH 3T3
T1 sequence (P63280 whole entry): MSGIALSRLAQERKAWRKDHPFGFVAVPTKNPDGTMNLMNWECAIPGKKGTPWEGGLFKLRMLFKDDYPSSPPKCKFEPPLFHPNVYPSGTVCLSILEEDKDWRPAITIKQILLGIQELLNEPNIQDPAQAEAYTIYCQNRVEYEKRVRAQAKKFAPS
Procedure: (§1) FIGS. 9A and 9B. A. A peptide corresponding to aa 40-59 on Mdm2 binds Ubc9. mu9bs (Mdm2 Ubc9 binding site) corresponding to aa 40-59 of Mdm2 and its control scrambled counterpart peptide mu9sb (were immobilized on an AminoLink column [Pierce]). 50 μl of peptide-bound beads were incubated with 1 mg of cell lysates from EJ mouse fibroblast cells. Beads were washed extensively with 0.5M LiCl/TBS and eluates were separated on a 14% gel. B. Ubc9 binds to mu9bs in vivo. NIH 3T3 cells were transfected with wt or mutant Ubc9 binding site peptide. 36 h after transfection cells were lysed and lysates were immunoprecipitated with HA-antibodies directed against the HA-tag of transfected peptides. Upper panel depicts to Co-immunoprecipitation of Ubc9 with the wt but not the mutant peptide.
Immunobilization of peptides to an AminoLink® column (Pierce Biochemical) was carried out exactly according to the manufacturer's protocol. In brief, column was equilibrated with coupeling buffer and 1 column volume of solution containing 1 mg of peptide was incubated with gel for 6 h. Later column was drained and washed with coupeling buffer. […]
To further assess the role of the Ubc-9 binding domain in Mdm2 sumoylation, a peptide that corresponds to aa 40-59 of Mdm2 was synthesized. […] Beads coupled to the peptides were incubated with cell lysates and bound proteins were analyzed in Western blots using antibodies to Ubc9.

[3] = molecular target: T2, GST-Mdm2 (Homo sapiens, UniProt Q00987); experiment: In vitro conjugation of SUMO-1 to GST-Mdm2 (in vitro sumoylation); format: biochemical
T2 construct: made in house
T2 sequence (Q00987 whole entry): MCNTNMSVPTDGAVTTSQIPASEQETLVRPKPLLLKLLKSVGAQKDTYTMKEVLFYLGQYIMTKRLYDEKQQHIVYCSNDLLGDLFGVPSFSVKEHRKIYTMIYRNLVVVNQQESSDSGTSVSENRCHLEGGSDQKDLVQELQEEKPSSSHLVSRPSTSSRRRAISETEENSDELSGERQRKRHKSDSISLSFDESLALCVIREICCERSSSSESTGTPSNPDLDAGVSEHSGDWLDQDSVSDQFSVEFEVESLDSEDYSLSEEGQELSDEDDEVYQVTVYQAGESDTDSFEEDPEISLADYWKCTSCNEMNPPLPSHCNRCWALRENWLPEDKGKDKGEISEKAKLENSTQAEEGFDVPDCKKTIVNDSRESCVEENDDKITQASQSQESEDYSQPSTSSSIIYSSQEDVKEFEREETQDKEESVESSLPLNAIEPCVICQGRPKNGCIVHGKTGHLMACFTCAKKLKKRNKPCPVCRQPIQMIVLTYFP
Procedure: A. Time dependent Mdm2 sumoylation in vitro. Bacterially expressed and purified GST-Mdm2 was subjected to in vitro sumoylation reaction in the presence of E1, Ubc9, and ^35S-Sumos. Reaction was terminated after 10,30,50 or 60 minutes, Proteins were separated on 8% gel, Commassie stained, dryed and exposed overnight (upper panel). Lower panel depicts Commassie blue staining of Mdm2 forms. […] (Upper part) The specific Ubc-9-binding site peptide or a nonspecific peptide was added to the reaction for the indicated time periods. […] The lower panel depicts a Coomassie staining visualizing relative amounts of sumoylated and non-sumoylated forms of purified GST-Mdm2. C. The Mdm2 sumoylation assay was carried out in the presence of Ubc-9-binding site peptide (mu9bs) or a nonspecific peptide (mu9bs) which were added to the reaction at the indicated concentrations. […] Mdm2/p53 double null cells were transfected with Flag-tagged Mdm2, HA-tagged Sumo-1 and increasing amounts of the specific or nonspecific Ubc-9-peptides, respectively. Cells were harvested 36 h later and 500 μg of protein was immunoprecipitated using Mdm2 antibodies (2A10). Immunoprecipitated Mdm2 levels were detected using 2A10 antibodies (top). The same membrane was stripped and reprobed using monoclonal antibodies against Sumo-1 (Zymed, middle) to visualize the level of Sumo-1 conjugation to Mdm2 after Ubc-9-peptide expression.
A. Bacterially expressed and purified Mdm2 (1 μg) was incubated with ^32P-labeled Sumo-1, purified Aos1/Uba2 and Ubc9 (0.5 μg) for 60 min at 37° C. in conjugation buffer. For indicated time-periods in vitro translated wt or mutant p19^ARF (0.5 mg) was added to the sumoylation reactions. Upper panel depicts the amount of Sumoylated Mdm2, lower panel reveal the level of Mdm2 and Sumo-Mdm2 in Coomassie blue gel. B. Bacterially expressed and purified Mdm2 (1 μg) was incubated with in vitro-translated ^35S-Sumo, purified Aos1/Uba2 and Ubc9 (0.5 μg) for 60 min at 37° C. in conjugation buffer in the presence of the increasing amounts of bacculovirus-expressed p19^ARF (0, 0.1, 0.5, 1 μg; lanes 1-4 respectively). Bead-bound complexes were washed before being denatured in 3× Sample Buffer. Proteins were separated on 8% SDS-PAGE. Gel was stained with Coomassie blue to verify equal Mdm2 input (lower panel), dried and exposed to X-ray film, which depicts SUMO-1 conjugation to Mdm2 in the presence of the indicated p19 forms (upper panel). […] Double-null cells were transfected with Flag-tagged Mdm2 (1.5 μg), HA-tagged SUMO (1.5 μg) and p19 wt (1.5 μg). Cells were treated with MG132 (40 mM) for 5 h prior to protein preparation. […] (Left) Immunoprecipitated Mdm2 was detected using monoclonal Mdm2 antibodies (2A10, left). […]

[4] = molecular target: T1, Ubc9; experiment: Co-immunoprecipitation of Ubc9 with HA-tagged peptide expressed in NIH 3T3 cells; format: cell-based; settings: HA-tagged penetratin peptide vector, 36 h after transfection
Procedure: as §1
Vectors described in Example I were used in the present example. The sequence of the Ubc-9 binding domain on Mdm2 (aa 40-59, Mdm2 Ubc9 binding site; mu9bs) in wt or in a scrambled orientation (mu9sb) was cloned in frame between EcoRI and XhoI restriction sites into a pcDNA3 that carries the penetration sequence, followed by the sequence encoding the HA-tag. All Mdm2 mutants were cloned in pBluescipt KS. Mutant Ubc9C93S was a gift from Olli Jänne.
To further confirm the ability of the peptide corresponding to mu9bs to associate with Ubc9 we carried out in vivo reactions. […]

[5] = molecular target: T3, Mdm2 (Homo sapiens, UniProt Q00987); experiment: In vivo sumoylation of Mdm2 in p53/Mdm2 double null cells; format: cell-based; settings: p53/Mdm2 double null cells, Flag-Mdm2, HA-Sumo-1, increasing amounts of peptide, 36 h
T3 construct: expressed in transfected cells; host or cells: p53/Mdm2 double null cells
T3 sequence (Q00987 whole entry): as above
Procedure: FIGS. 10A-10D. A. Time dependent Mdm2 sumoylation in vitro. Bacterially expressed and purified GST-Mdm2 was subjected to in vitro sumoylation reaction in the presence of E1, Ubc9, and ^35S-Sumos. Reaction was terminated after 10,30,50 or 60 minutes, Proteins were separated on 8% gel, Commassie stained, dryed and exposed overnight (upper panel). Lower panel depicts Commassie blue staining of Mdm2 forms. B. A peptide corresponding to the Ubc-9 binding site on Mdm2 decreases Mdm2 in vitro sumoylation of Mdm2 in a time-dependent manner. (Upper part) The specific Ubc-9-binding site peptide or a nonspecific peptide was added to the reaction for the indicated time periods. […] The lower panel depicts a Coomassie staining visualizing relative amounts of sumoylated and non-sumoylated forms of purified GST-Mdm2. C. The Mdm2 sumoylation assay was carried out in the presence of Ubc-9-binding site peptide (mu9bs) or a nonspecific peptide ([…]) which were added to the reaction at the indicated concentrations. […] D. A peptide corresponding to the Ubc-9 binding site on Mdm2 decreases Mdm2 sumoylation in vivo. […] Immunoprecipitated Mdm2 levels were detected using 2A10 antibodies (top). […]
FIG. 13A-13E. […] (Left) Immunoprecipitated Mdm2 was detected using monoclonal Mdm2 antibodies (2A10, left). […]

[6] = molecular target: T4, Ubc9 binding to Mdm2 (Homo sapiens, UniProt Q00987); experiment: In vitro binding of Ubc9 to GST-Mdm2; settings: GST-Mdm2 phosphorylated by active p38 kinase
T4 construct: made in house; host or cells: GST-Mdm2: bacteria; Ubc9: in vitro translation
T4 sequence (Q00987 whole entry): as above
Procedure: FIGS. 17A and 17B. A. p19^ARF decreases Ubc9 binding to Mdm2. Bacterially expressed and purified GST-Mdm2 (1 μg) was incubated with ^35S-labeled in vitro translated p19^ARF and Ubc9 at the indicated ratios. After 30 min of incubation GSH beads bound-GST-Mdm2 were washed and separated on a 12% SDS-PAGE. Gel was dried and subjected to autoradiograph, depicting relative amounts of Ubc9 and p19^ARF bound to Mdm2. B. Bacterially expressed and purified GST-Mdm2 (1 μg) was phosphorylated by purified form of active p38 kinase as indicated. Phosphorylated or un-phosphorylated Mdm2 was incubated for 30 min with in vitro translated UbcH5b and Ubc9 (25 μl). Beads were washed and separated on a 12% SDS-PAGE. Gel was dried and exposed to X-ray film. Position of Ubc9 and UbcH5b is shown.
A prerequisite for Mdm2 sumoylation is the association of Ubc9, the SUMO conjugating enzyme, with Mdm2, which enables subsequent conjugation of SUMO-1 to Mdm2. Inhibition of Ubc9's association with Mdm2 attenuates Mdm2 sumoylation. Given the effect of p19^ARF on Mdm2 sumoylation, we proceeded to determine whether p19^ARF may alter Ubc9 binding to Mdm2. To this end we performed an in vitro binding assay, using in vitro translated p19^ARF and Ubc-9, as indicated. […] We next assessed possible changes in Ubc9 binding to Mdm2 upon its phosphorylation by p38.

| Substance | overall level of p53 expression [1] | form of Mdm2 (75 kDa non-sumoylated / 90 kDa sumoylated) associated with p53 ([1]; peptide expression, p53 immunoprecipitation) | capture of Ubc9 by column-coupled peptide [2] | Mdm2 sumoylation in vitro, increasing concentrations of peptide [3] | Mdm2 sumoylation in vitro, peptide added for different periods of time ([3]; peptide present 0-50 min of 60 min reaction) | association of expressed peptide with Ubc9 in vivo [4] | degree of Mdm2 sumoylation in vivo upon peptide co-expression [5] | Ubc9 binding to Mdm2 upon in vitro phosphorylation of Mdm2 [6] |
| --- | --- | --- | --- | --- | --- | --- | --- | --- |
| mu9bs: peptide that corresponds to aa 40-59 of Mdm2 (mdm2 Ubc9 binding site) (SVGAQKDTYTMKEVLFYLGQ) | increased level of p53 | p53 association only with the non-sumoylated form of Mdm2 | captured Ubc9 | dose-dependent decrease of Mdm2 sumoylation | sufficient to attenuate Mdm2 sumoylation in a manner that coincided with the length of the incubation | associated with Ubc9 | dose-dependent decrease in the degree of Mdm2 sumoylation in vivo | – |
| p38: purified active p38 kinase that phosphorylates Mdm2 | – | – | – | – | – | – | – | marked decrease in Ubc9 binding to Mdm2 |
